Measurements: patent US20210054095A1 (PHILOGEN S P A, published 2021)
Blank lines part the entries; values can stand above or below the binder they belong to.

Assays:
[1] = molecular target: CAIX coated on a CM5 chip (Example 2) (human, UniProt Q16790 38-414); test: SPR (BIAcore X100), CAIX coated CM5 chip, scFv injected as serial dilutions
Method: Affinity measurements were performed by surface plasmon resonance using BIAcore X100 instrument using a CAIX coated CM5 chip. The XE114 antibody without glycosylation motif in scFv format was injected as serial-dilutions, in a concentration range from […] to 15.7 nM. Regeneration of the chip was performed by HCl 10 mM.
The BIAcore analysis confirmed that the XE114 antibody without glycosylation motif in scFv format was capable of binding to CAIX.

[2] = molecular target: recombinant His-tagged CAIX (amino acids 120-397 of the full-length protein; SEQ ID NO: 15) (human, UniProt Q16790 120-397); test: SPR (Biacore 3000), His-tagged CAIX on CM5 chip, monomeric scFv injected at 660 nM
Method: Affinity measurements were performed on a Biacore 3000 instrument. 2100 RU recombinant His-tagged CAIX (SEQ ID NO: 15) were immobilized onto a CM5 chip. Peaks representing the monomeric fractions of the scFv were collected by size-exclusion chromatography on a Superdex 75 HR 10/30 column. The monomeric fraction was injected at a flow rate of 10 μl min⁻¹ over the antigen-coated chip at […] different concentrations, 660 nM, 160 nM and 80 nM. All kinetic data were evaluated using the BIAevaluation 4.1 software.

[3] = molecular target: carbonic anhydrase IX (CAIX) as expressed on SKRC52 human renal cell carcinoma cells, SKRC52 tumour sections … (human, UniProt Q16790 38-459); test: immunofluorescence on frozen human stomach sections, FITC-labelled hIgG1 at 2 ug/ml
Method: Frozen sections of healthy human stomach tissue were stained as follows. Briefly, FITC-labeled antibody XE114 in human IgG1 (hIgG1) format was added at a final concentration of 2 μg/ml to acetone-fixed sections.
Counterstaining for cell nuclei was performed with DAPI. Tissue sections were mounted with fluorescent mounting medium and analysed using an Axioskop2 microscope with a 10× objective.

- Kd [1]: 2.71 nM
- koff [1]: 0.000305 s⁻¹
B1: XE114 antibody without glycosylation motif in scFv format (scFv)
scFv: EVQLLESGGGLVQPGGSLRLSCAASGFTFSSYAMSWVRQAPGKGLEWVSAIDGSGGSTYYADSVKGRFTISRDNSKNTLYLQMNSLRAEDTAVYYCVKGPPVFDYWGQGTLVTVSSGGGGSGGGGSGGGGSSELTQDPAVSVALGQTVRITCQGDSLRSYYASWYQQKPGQAPVLVIYGKNNRPSGIPDRFSGSSSGNTASLTITGAQAEDEADYYCQSSKWSWDPVVFGGGTKLTVLG
notes: Expressed in CHO-S cells; also called XE114 w/o glycosylation motif

- Kd [2]: 15 nM
B2: anti-CAIX XE114 scFv antibody (with the glycosylation motif) (scFv)
scFv: EVQLLESGGGLVQPGGSLRLSCAASGFTFSSYAMSWVRQAPGKGLEWVSAIDGSGGSTYYADSVKGRFTISRDNSKNTLYLQMNSLRAEDTAVYYCVKGPPVFDYWGQGTLVTVSSGGGGSGGGGSGGGGSSELTQDPAVSVALGQTVRITCQGDSLRSYYASWYQQKPGQAPVLVIYGKNNRPSGIPDRFSGSSSGNTASLTITGAQAEDEADYYCNSSKWSWDPVVFGGGTKLTVLG
notes: also called scFv XE114; XE114 single chain Fv

- binding result [3]: binds
B3: XE114 antibody (with the glycosylation motif) in human IgG1 (hIgG1) format (antibody, V domains shown)
VH: EVQLLESGGGLVQPGGSLRLSCAASGFTFSSYAMSWVRQAPGKGLEWVSAIDGSGGSTYYADSVKGRFTISRDNSKNTLYLQMNSLRAEDTAVYYCVKGPPVFDYWGQGTLVTVSS
VL: SSELTQDPAVSVALGQTVRITCQGDSLRSYYASWYQQKPGQAPVLVIYGKNNRPSGIPDRFSGSSSGNTASLTITGAQAEDEADYYCNSSKWSWDPVVFGGGTKLTVLG
modifications: FITC-labelled (site and chain not stated)
notes: also called FITC-labeled antibody XE114; XE114 in IgG format
